Read-outs that look alike come from different tables or passages of the source.
Experiments:
in vivo = assay: in vivo; parameters: species or system mice; settings: male, SCID/beige, mouse, total radioactivity
Protocol: (§1) All animal experiments were ethically reviewed by an Animal Welfare and Ethical Review Board at either King’s College London or Barts Cancer Institute and were performed in accordance with the Animals (Scientific Procedures) Act 1986 U.K. Home Office regulations governing animal experimentation. Subcutaneous prostate cancer DU145-PSMA+ or DU145 xenografts were produced in SCID/beige mice (male, 7–12 wk old). Subcutaneous LNCaP prostate cancer xenografts were produced in athymic nude mice (Crl:NU(NCr)-Foxn1^nu, male, 6–7 wk old). SPECT/CT and biodistribution studies using ^99mTc and ^188Re radiotracers were performed once a tumor had reached an appropriate size (supplemental materials).
Additionally, groups of mice bearing non–PSMA-expressing parental DU145 tumors were also administered these ^99mTc radiotracers. For these groups, tumor uptake of [^99mTc]Tc-DP1-PSMAt decreased to 0.24 ± 0.07 %ID/g, and tumor uptake of [^99mTc]Tc-DP2-PSMAt decreased to 0.18 ± 0.07 %ID/g (Supplemental Fig. 3).

[1] = Ex vivo biodistribution in SCID/beige mice bearing DU145-PSMA+ xenograft tumors; settings: male, SCID/beige, mouse, in vivo, iv, total radioactivity
Protocol: as §1
(§2) The biodistributions of [^99mTc]Tc-DP1-PSMAt and [^99mTc]Tc-DP2-PSMAt were assessed in male SCID/beige mice bearing DU145-PSMA+ xenograft tumors (Fig. 3). Each mouse was administered either [^99mTc]Tc-DP1-PSMAt or [^99mTc]Tc-DP2-PSMAt and euthanized at 2 h after injection (n = 5), followed by organ harvesting for ex vivo radioactivity counting.
(§3) FIGURE 3. (A) Biodistribution (2 h after injection) of SCID/beige mice bearing DU145-PSMA+ prostate cancer tumors, administered either ^99mTc or ^188Re radiotracers intravenously. To assess specificity of radiotracer uptake, additional groups of mice were also coadministered radiotracer and PMPA (Supplemental Tables 3 and 4). (B) Whole-body SPECT/CT maximum-intensity projections of SCID/beige mice bearing either DU145-PSMA+ tumors or DU145 tumors, administered either [^99mTc]Tc-DP1-PSMAt or [^99mTc]Tc-DP2-PSMAt, 2 h after injection. To inhibit uptake in DU145-PSMA+ tumors, animals were also coadministered PMPA.
(§4) To assess the specificity of each radiotracer, separate groups of animals, also bearing DU145-PSMA+ tumors, were coadministered either [^99mTc]Tc-DP1-PSMAt and PMPA or [^99mTc]Tc-DP2-PSMAt and PMPA to inhibit PSMA-mediated uptake of radiotracer (n = 5). […] For [^99mTc]Tc-DP1-PSMAt, coadministration decreased uptake to 0.91 ± 0.29 %ID/g in tumors (compared with administration of [^99mTc]Tc-DP1-PSMAt only: mean difference of 17.12 %ID/g, P = 4 × 10^−4). For [^99mTc]Tc-DP2-PSMAt, coadministration decreased uptake to 0.76 ± 0.45 %ID/g in tumors (compared with administration of [^99mTc]Tc-DP2-PSMAt only: mean difference of 28.62 %ID/g, P = 5 × 10^−4).

[2] = Ex vivo biodistribution in athymic nude mice bearing LNCaP xenografts; settings: male, athymic nude (Crl:NU(NCr)-Foxn1^nu), mouse, total radioactivity
Protocol: as §1
With a view to developing a molecular [^188Re]Re-labeled agent for PSMA PRRT, we further characterized the biodistribution profiles of [^188Re]Re-DP1-PSMAt and [^188Re]Re-DP2-PSMAt in male athymic nude mice bearing LNCaP xenografts (Fig. 4), which recapitulate clinical metastatic prostate cancer more closely than DU145-PSMA+ xenografts. […] In mice administered [^188Re]Re-DP1-PSMAt, LNCaP tumor uptake measured 7.0 ± 2.3 %ID/g at 2 h after injection and 2.9 ± 0.8 %ID/g at 24 h after injection. For [^188Re]Re-DP2-PSMAt, LNCaP tumor uptake measured 9.8 ± 2.8 %ID/g at 2 h after injection and 7.6 ± 4.4 %ID/g at 24 h after injection.
FIGURE 4. (A–C) Biodistribution of ^188Re in athymic nude mice bearing LNCaP prostate cancer tumors, administered either [^188Re]Re-DP1-PSMAt or [^188Re]Re-DP2-PSMAt at 2 h after injection (A), at 24 h after injection (B), and at 2 h after injection (C) with coadministration of Gelofusine. (D) Additionally, biodistributions of [^99mTc]Tc-DP1-PSMAt and [^99mTc]Tc-DP2-PSMAt at 2 h after injection were measured (Supplemental Tables 5–8). GI = gastrointestinal tract.

PC3 cells = assay: Radiotracer uptake in PC3 cells (non-PSMA-expressing); type: cell-based; settings: 100 kBq, 1 h, 37°C; cells do not express PSMA
Protocol: (§5) Solutions containing radiotracer (100 kBq in 8–12 μL of phosphate-buffered saline, >95% radiochemical purity) were added to DU145-PSMA+ or LNCaP prostate cancer cells ([22]), and the cells were incubated at 37°C for 1 h. Nonspecific uptake was determined using non–PSMA-expressing cells (DU145, PC3) or by blocking PSMA-expressing cells (DU145-PSMA+, LNCaP) with 2-phosphonomethyl pentanedioic acid (PMPA). After incubation, the cells were washed and samples collected for radioactivity counting. Uptake and localization of ^99mTc radiotracers were measured over time (15, 30, 60, and 120 min) in DU145-PSMA+ or LNCaP cells (supplemental materials).
(§6) To assess the specificity of the new radiotracers for PSMA, [^99mTc]Tc-DP1-PSMAt and [^99mTc]Tc-DP2-PSMAt (100 kBq) were each incubated with DU145-PSMA+ prostate cancer cells (DU145 cells transfected to express PSMA receptor) ([22]). After 1 h of incubation, uptake of each radiotracer was quantified. […] In LNCaP cells, uptake of [^99mTc]Tc-DP1-PSMAt and [^99mTc]Tc-DP2-PSMAt measured 3.7 ± 1.2 %AR and 3.0 ± 0.8 %AR, respectively, whereas uptake of both radiotracers in PC3 cells measured less than 0.3 %AR.
(§7) FIGURE 2. (A) Uptake of radiotracers in PSMA-positive and PSMA-negative prostate cancer cells. (B) Time course uptake and localization of ^99mTc radiotracers in DU145-PSMA cells and LNCaP cells. Data are presented as mean ± SD; n = 3–4 biologic repeats performed in triplicate.

[3] = tested on: DU145-PSMA+ xenograft tumors; assay: Ex vivo biodistribution in SCID/beige mice bearing DU145-PSMA+ xenograft tumors; settings: for effect of PMPA coadministration on spleen uptake (in words) / effect of PMPA coadministration on tumor uptake (in words): SCID/beige mice bearing DU145-PSMA+ tumors, 2 h after injection; for radioactivity concentration in DU145-PSMA+ tumors: male, SCID/beige, mouse, in vivo, iv, 2 h
Protocol: as §1, §2, §3, §4

[4] = tested on: LNCaP prostate cancer cells, which natively express PSMA; assay: Radiotracer uptake in LNCaP prostate cancer cells; type: cell-based; settings: 37°C; for uptake in LNCaP cells: 100 kBq radiotracer, 1 h incubation, percentage added radioactivity, mean ± SD, n = 3–4 biologic repeats in triplicate; for uptake in LNCaP cells with PMPA block: blocked with PMPA, 1 h
Protocol: as §5, §6, §7

[5] = tested on: DU145-PSMA+ prostate cancer cells (DU145 cells transfected to express PSMA receptor); assay: Radiotracer uptake in DU145-PSMA+ prostate cancer cells; type: cell-based; settings: 37°C; for uptake in DU145-PSMA+ cells: 100 kBq radiotracer, 1 h incubation, percentage added radioactivity, mean ± SD, n = 3–4 biologic repeats in triplicate; for uptake in DU145-PSMA+ cells with PMPA block: coincubated with PSMA inhibitor PMPA, 1 h
Protocol: as §5, §6, §7

[6] = tested on: parental DU145 cells that do not express PSMA; assay: Radiotracer uptake in parental DU145 cells (non-PSMA-expressing); type: cell-based; settings: 100 kBq, 1 h, 37°C
Protocol: as §5, §6, §7

[7] = SCID/beige mice bearing DU145-PSMA+ tumors, 2 h after injection, read-out: radioactivity concentration in kidneys
[8] = SCID/beige mice, 2 h after injection, PMPA coadministered, n = 5, read-out: DU145-PSMA+ tumor uptake with coadministration of PMPA
[9] = SCID/beige mice, 2 h after injection, PMPA coadministered, read-out: radioactivity concentration in spleen with PMPA
[10] = radioactivity concentration in DU145-PSMA+ tumors
[11] = radioactivity concentration in spleen
[12] = athymic nude mice bearing LNCaP tumors, 2 h after injection, Gelofusine coadministered, read-out: kidney retention with coadministration of Gelofusine
[13] = athymic nude mice bearing LNCaP tumors, 2 h after injection, read-out: concentration in kidneys at 2 h
[14] = athymic nude mice bearing LNCaP tumors, 24 h after injection, read-out: concentration in kidneys at 24 h

## O=C(O)CC[C@H](NC(=O)N[C@@H](CCCCNC(=O)CCOCCOCCOCCOCCNC(=O)/C(=C(\C(=O)O)P(c1ccccc1)c1ccccc1)P(c1ccccc1)c1ccccc1)C(=O)O)C(=O)O [[^99mTc]Tc-DP1-PSMAt, metal not drawn]
In vivo
  tissue uptake at 2 h: 0.24 ± 0.07 %ID/g
[1]; [7]
  tissue uptake at 2 h: 116 ± 27.3 %ID/g
[1]; [8]
  tissue uptake at 2 h: 0.91 ± 0.29 %ID/g
[1]; SCID/beige mice, 2 h after injection, PMPA coadministered, read-out: radioactivity concentration in kidneys with PMPA
  tissue uptake at 2 h: 38 ± 2.9 %ID/g
[1]; [9]
  tissue uptake at 2 h: 0.2 ± 0.06 %ID/g
[1]; [10]
  tissue uptake at 2 h: 18 ± 3.5 %ID/g
[1]; [11]
  tissue uptake at 2 h: 12 ± 5.3 %ID/g

## Cc1ccc(P(/C(C(=O)O)=C(/C(=O)NCCOCCOCCOCCOCCC(=O)NCCCC[C@H](NC(=O)N[C@@H](CCC(=O)O)C(=O)O)C(=O)O)P(c2ccc(C)cc2)c2ccc(C)cc2)c2ccc(C)cc2)cc1 [[^99mTc]Tc-DP2-PSMAt, metal not drawn]
In vivo
  tissue uptake at 2 h: 0.18 ± 0.07 %ID/g
[1]; [7]
  tissue uptake at 2 h: 183 ± 23.8 %ID/g
[1]; [8]
  tissue uptake at 2 h: 0.76 ± 0.45 %ID/g
[1]; [9]
  tissue uptake at 2 h: 0.3 ± 0.18 %ID/g
[1]; [10]
  tissue uptake at 2 h: 29.4 ± 6.3 %ID/g
[1]; [11]
  tissue uptake at 2 h: 7.7 ± 3.4 %ID/g

## O=C(O)CC[C@H](NC(=O)N[C@@H](CCCCNC(=O)CCOCCOCCOCCOCCNC(=O)/C(=C(\C(=O)O)P(c1ccccc1)c1ccccc1)P(c1ccccc1)c1ccccc1)C(=O)O)C(=O)O [[^188Re]Re-DP1-PSMAt, metal not drawn]
[2]
  tissue uptake at 2 h: 7 ± 2.3 %ID/g
  tissue uptake at 24 h: 2.9 ± 0.8 %ID/g
[2]; [12]
  tissue uptake at 2 h: 109 ± 13.3 %ID/g
[2]; [13]
  tissue uptake at 2 h: 137 ± 34.6 %ID/g
[2]; [14]
  tissue uptake at 24 h: 29.4 ± 4.9 %ID/g

## O=C(O)CC[C@H](NC(=O)N[C@@H](CCCCNC(=O)CCOCCOCCOCCOCCNC(=O)/C(=C(\C(=O)O)P(c1ccccc1)c1ccccc1)P(c1ccccc1)c1ccccc1)C(=O)O)C(=O)O [[^188Re]Re-DP1-PSMAt] [metal not drawn]
PC3 cells
  uptake in PC3 cells (in words): negligible uptake
[3]
  effect of PMPA coadministration on spleen uptake (in words): significantly inhibited uptake
  effect of PMPA coadministration on tumor uptake (in words): significantly inhibited uptake
  radioactivity concentration in DU145-PSMA+ tumors: 27.7 ± 6.4 %ID/g
[4]
  uptake in LNCaP cells: 2.8 ± 1.6 %AR
  uptake in LNCaP cells with PMPA block: could be blocked with PMPA
[5]
  uptake in DU145-PSMA+ cells: 13.5 ± 2.7 %AR
  uptake in DU145-PSMA+ cells with PMPA block: could be blocked with PMPA
[6]
  uptake in parental DU145 cells: negligible uptake

## Cc1ccc(P(/C(C(=O)O)=C(/C(=O)NCCOCCOCCOCCOCCC(=O)NCCCC[C@H](NC(=O)N[C@@H](CCC(=O)O)C(=O)O)C(=O)O)P(c2ccc(C)cc2)c2ccc(C)cc2)c2ccc(C)cc2)cc1 [[^188Re]Re-DP2-PSMAt, metal not drawn]
[2]
  tissue uptake at 2 h: 9.8 ± 2.8 %ID/g
  tissue uptake at 24 h: 7.6 ± 4.4 %ID/g
[2]; [12]
  tissue uptake at 2 h: 128 ± 17.7 %ID/g
[2]; [13]
  tissue uptake at 2 h: 163 ± 31.8 %ID/g
[2]; [14]
  tissue uptake at 24 h: 37 ± 12.2 %ID/g

## Cc1ccc(P(/C(C(=O)O)=C(/C(=O)NCCOCCOCCOCCOCCC(=O)NCCCC[C@H](NC(=O)N[C@@H](CCC(=O)O)C(=O)O)C(=O)O)P(c2ccc(C)cc2)c2ccc(C)cc2)c2ccc(C)cc2)cc1 [[^188Re]Re-DP2-PSMAt] [metal not drawn]
PC3 cells
  uptake in PC3 cells (in words): negligible uptake
[3]
  effect of PMPA coadministration on spleen uptake (in words): significantly inhibited uptake
  effect of PMPA coadministration on tumor uptake (in words): significantly inhibited uptake
  radioactivity concentration in DU145-PSMA+ tumors: 19.2 ± 8.6 %ID/g
[4]
  uptake in LNCaP cells: 2.6 ± 1.6 %AR
  uptake in LNCaP cells with PMPA block: could be blocked with PMPA
[5]
  uptake in DU145-PSMA+ cells: 8.3 ±0.7 %AR
  uptake in DU145-PSMA+ cells with PMPA block: could be blocked with PMPA
[6]
  uptake in parental DU145 cells: negligible uptake

From publication PMC11218721, “Receptor-Targeted Peptide Conjugates Based on Diphosphines Enable Preparation of ^99mTc and ^188Re Theranostic Agents for Prostate Cancer” (Journal of Nuclear Medicine, 2024)
